Test results taken from patent US20180346573A1 (I MAB, published 2018).

Target: human PD-L1 expressed on CHOK1 cells (PDL1-CHOK1 cell line) (human) (UniProt Q9NZQ7)
Experiment: FACS on PDL1-CHOK1 cells, MFI of Alexa 488 anti-human IgG; EC50 table under the graph, unit from the x axis Antibodies(nM); fit value of a flat control curve, see non_binding

Chain of human PD-L1 expressed on CHOK1 cells (PDL1-CHOK1 cell line) (human) (Q9NZQ7 19-290): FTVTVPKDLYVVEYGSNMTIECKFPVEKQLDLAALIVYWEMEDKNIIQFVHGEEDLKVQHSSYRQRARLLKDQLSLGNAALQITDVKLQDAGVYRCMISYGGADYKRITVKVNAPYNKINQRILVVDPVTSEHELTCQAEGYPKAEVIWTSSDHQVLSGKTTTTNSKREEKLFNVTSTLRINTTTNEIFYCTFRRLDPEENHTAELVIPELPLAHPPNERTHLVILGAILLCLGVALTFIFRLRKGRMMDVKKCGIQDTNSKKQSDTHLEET

| Molecule | EC50 |
| --- | --- |
| Hu IgG (antibody) | 9.55 µM |

Target: T1, human PD-L1 expressed on CHOK1 cells (PDL1-CHOK1 cell line) (human, UniProt Q9NZQ7 19-290)
T1 construct: whole, on cells; also called PDL1-CHOK1 cells; PD-L1 expressed on mammalian cells
T1 sequence (Q9NZQ7 19-290): as above
Experiment: FACS receptor blocking: PDL1-CHOK1 cells, competitor Bio-PD1 (30 µg/ml)
Experimental: To evaluate the blocking effect of humanized antibodies on human PD-L1 expressed on mammalian cells to bind to its receptor PD-1, the FACS-based receptor blocking assay was employed. Briefly, PDL1-CHOK1 cells were firstly incubated with 3-fold serious diluted HL1210-3 mouse mAb starting at 20 μg/ml at RT for 1 hour. After wash by FACS buffer (PBS with 2% FBS), the biotin-labeled huPD-1 were added to each well and incubated at RT for 1 hour. Then, the Streptavidin-PE were added to each well for 0.5 hour post twice wash with FACS buffer. The mean florescence intensity (MFI) of PE were evaluated by FACSAriaIII.

| Molecule | TOP |
| --- | --- |
| H1210 chimera (antibody, V domains shown, also called chimeric antibody) VH: EVKLVESGGDLVKPGGSLKLSCAASGFTFSSYDMSWVRQTPEKSLEWVATISDGGGYIYYSDSVKGRFTISRDNAKNNLYLQMSSLRSEDTALYICAREFGKRYALDYWGQGTSVTVSS VL: DIVMTQSHKFMSTSVGDRVSISCKASQDVTPAVAWYQQKPGQSPKLLIYSTSSRYTGVPDRFTGSGSGTDFTFTISSVQAEDLAVYYCQQHYTTPLTFGAGTKLELK | 87.2% |
| Hu1210-8 (antibody, V domains shown) VH: EVQLVESGGGLVKPGGSLRLSCAASGFTFSSYDMSWVRQAPGKGLEWVATISDGGGYIYYSDSVKGRFTISRDNAKNSLYLQMNSLRAEDTAVYYCAREFGKRYALDYWGQGTTVTVSS VL: DIQMTQSPSSLSASVGDRVTITCKASQDVTPAVAWYQQKPGKSPKLLIYSTSSRYTGVPSRFSGSGSGTDFTFTISSLQPEDIATYYCQQHYTTPLTFGQGTKLEIK | 86.3% |
| Hu1210-3 (antibody, V domains shown, Not the mouse mAb HL1210-3) VH: EVQLVESGGGLVKPGGSLRLSCAASGFTFSSYDMSWVRQAPGKSLEWVATISDGGGYIYYSDSVKGRFTISRDNAKNSLYLQMNSLRAEDTAVYICAREFGKRYALDYWGQGTTVTVSS VL: DIQMTQSPSSLSASVGDRVTITCKASQDVTPAVAWYQQKPGKAPKLLIYSTSSRYTGVPSRFSGSGSGTDFTFTISSLQPEDIATYYCQQHYTTPLTFGQGTKLEIK | 84.3% |
| Hu1210-14 (antibody, V domains shown) VH: EVQLLESGGGLVQPGGSLRLSCAASGFTFSSYDMSWVRQAPGKSLEWVATISDGGGYIYYSDSVKGRFTISRDNSKNTLYLQMNSLRAEDTAVYICAREFGKRYALDYWGQGTTVTVSS VL: DIQMTQSPSSLSASVGDRVTITCKASQDVTPAVAWYQQKPGKAPKLLIYSTSSRYTGVPSRFSGSGSGTDFTFTISSLQPEDIATYYCQQHYTTPLTFGQGTKLEIK | 79.6% |
| Hu1210-16 (antibody, V domains shown) VH: EVQLVESGGGLVQPGGSLRLSCAASGFTFSSYDMSWVRQAPGKGLEWVATISDGGGYIYYSDSVKGRFTISRDNAKNSLYLQMNSLRDEDTAVYYCAREFGKRYALDYWGQGTTVTVSS VL: DIQMTQSPSSLSASVGDRVTITCKASQDVTPAVAWYQQKPGKAPKLLIYSTSSRYTGVPSRFSGSGSGTDFTFTISSLQPEDIATYYCQQHYTTPLTFGQGTKLEIK | 88% |
| Hu1210-19 (antibody, V domains shown) VH: EVQLLESGGGLVQPGGSLRLSCAASGFTFSSYDMSWVRQAPGKSLEWVATISDGGGYIYYSDSVKGRFTISRDNSKNTLYLQMNSLRAEDTAVYICAREFGKRYALDYWGQGTTVTVSS VL: DIQMTQSPSSLSASVGDRVTITCKASQDVTPAVAWYQQKPGKSPKLLIYSTSSRYTGVPSRFSGSGSGTDFTFTISSLQPEDIATYYCQQHYTTPLTFGQGTKLEIK | 87.5% |
| Hu1210-22 (antibody, V domains shown) VH: EVQLVESGGGLVQPGGSLRLSCAASGFTFSSYDMSWVRQAPGKSLEWVATISDGGGYIYYSDSVKGRFTISRDNAKNSLYLQMNSLRDEDTAVYICAREFGKRYALDYWGQGTTVTVSS VL: DIQMTQSPSSLSASVGDRVTITCKASQDVTPAVAWYQQKPGKSPKLLIYSTSSRYTGVPSRFSGSGSGTDFTFTISSLQPEDIATYYCQQHYTTPLTFGQGTKLEIK | 85.8% |
| Hu1210-17 (antibody, V domains shown) VH: EVQLVESGGGLVQPGGSLRLSCAASGFTFSSYDMSWVRQAPGKSLEWVATISDGGGYIYYSDSVKGRFTISRDNAKNSLYLQMNSLRDEDTAVYICAREFGKRYALDYWGQGTTVTVSS VL: DIQMTQSPSSLSASVGDRVTITCKASQDVTPAVAWYQQKPGKAPKLLIYSTSSRYTGVPSRFSGSGSGTDFTFTISSLQPEDIATYYCQQHYTTPLTFGQGTKLEIK | 80.9% |
| Hu1210-27 (antibody, V domains shown) VH: EVQLVESGGGLVQPGGSLRLSCAASGFTFSSYDMSWVRQAPGKGLEWVATISDGGGYIYYSDSVKGRFTISRDNAKNSLYLQMNSLRAEDTAVYICAREFGKRYALDYWGQGTLVTVSS VL: DIQMTQSPSSLSASVGDRVTITCKASQDVTPAVAWYQQKPGKAPKLLIYSTSSRYTGVPSRFSGSGSGTDFTLTISSLQPEDFATYYCQQHYTTPLTFGQGTKLEIKR | 104% |
| Hu1210-31 (antibody, V domains shown) VH: EVQLVESGGGLVQPGGSLRLSCAASGFTFSSYDMSWVRQAPGKGLEWVATISDGGGYIYYSDSVKGRFTISRDNAKNSLYLQMNSLRAEDTAVYICAREFGKRYALDYWGQGTTVTVSS VL: DIQMTQSPSSLSASVGDRVTITCKASQDVTPAVAWYQQKPGKAPKLLIYSTSSRYTGVPSRFSGSGSGTDFTLTISSLQPEDFATYYCQQHYTTPLTFGQGTKLEIKR | 92.9% |
| Hu1210-36 (antibody, V domains shown) VH: EVQLVESGGGLVQPGGSLRLSCAASGFTFSSYDMSWVRQTPEKSLEWVATISDGGGYIYYSDSVKGRFTISRDNAKNNLYLQMNSLRAEDTAVYICAREFGKRYALDYWGQGTLVTVSS VL: DIQMTQSPSSLSASVGDRVTITCKASQDVTPAVAWYQQKPGKAPKLLIYSTSSRYTGVPSRFSGSGSGTDFTLTISSLQPEDFATYYCQQHYTTPLTFGQGTKLEIKR | 91.8% |
